The results in this text go back to PMC4614863, “New Insights into the RNA-Binding and E3 Ubiquitin Ligase Activities of Roquins”.

For data set [1], the target named is T1, RC3H2 RNA-binding region (HEPN+ROQ), wild type (Homo sapiens, UniProt Q9HBD1 87-404).
T1 sequence: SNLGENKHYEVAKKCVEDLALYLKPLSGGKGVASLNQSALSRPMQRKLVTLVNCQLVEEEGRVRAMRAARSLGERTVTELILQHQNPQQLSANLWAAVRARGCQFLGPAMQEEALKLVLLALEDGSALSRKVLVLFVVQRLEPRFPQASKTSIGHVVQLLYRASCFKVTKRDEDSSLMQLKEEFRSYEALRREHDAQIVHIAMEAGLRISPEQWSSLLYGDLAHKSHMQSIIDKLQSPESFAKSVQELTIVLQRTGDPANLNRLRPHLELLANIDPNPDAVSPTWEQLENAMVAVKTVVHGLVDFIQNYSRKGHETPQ
Nature of the data set: analytical SEC; ITC: 20 mM Tris-HCl pH 8.0, 150 mM NaCl, 1 mM TCEP, 25 C; 200-500 uM RNA injected into 15-30 uM protein, one-site model. To be noted: protein: recombinant.

Data set [2] has as its target T2, RC3H2 stem-loop triple mutant (Homo sapiens, UniProt Q9HBD1 87-404, Q244A;Y247A;R248E).
T2 sequence: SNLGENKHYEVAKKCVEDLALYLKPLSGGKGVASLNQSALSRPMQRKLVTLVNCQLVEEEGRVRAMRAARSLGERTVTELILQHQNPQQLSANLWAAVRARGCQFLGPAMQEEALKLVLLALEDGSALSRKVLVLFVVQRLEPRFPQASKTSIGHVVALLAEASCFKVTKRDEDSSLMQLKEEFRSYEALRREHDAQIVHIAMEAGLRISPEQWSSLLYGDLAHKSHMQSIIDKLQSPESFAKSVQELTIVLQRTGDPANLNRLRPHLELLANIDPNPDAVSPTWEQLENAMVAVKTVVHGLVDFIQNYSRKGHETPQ
Put plainly: analytical SEC; 47.3 kDa complex; ITC: 20 mM Tris-HCl pH 8.0, 150 mM NaCl, 1 mM TCEP, 25 C; 200-500 uM RNA injected into 15-30 uM protein, one-site model. The note with it: protein: recombinant; tags: His6-tag, removed by TEV where applicable; mixture of hairpin and self-duplex in solution.

Data set [3] has as its target T1, RC3H2 RNA-binding region (HEPN+ROQ), …. Nature of the data set: ITC; ITC: 20 mM Tris-HCl pH 8.0, 150 mM NaCl, 1 mM TCEP, 25 C; 200-500 uM RNA injected into 15-30 uM protein, one-site model. To be noted: protein: recombinant, tags: His6-tag (pET28-MHL N-terminal TEV-cleavable, or pNIC-CH C-terminal uncleavable), removed by TEV where applicable. A general note: ITC needs no label: the signal is the heat of the interaction.

Data set [4] has as its target T3, RC3H2 quaternary mutant (triple mutant + phosphomimic) (Homo sapiens, UniProt Q9HBD1 87-404, Q244A;Y247A;R248E;S323E).
T3 sequence: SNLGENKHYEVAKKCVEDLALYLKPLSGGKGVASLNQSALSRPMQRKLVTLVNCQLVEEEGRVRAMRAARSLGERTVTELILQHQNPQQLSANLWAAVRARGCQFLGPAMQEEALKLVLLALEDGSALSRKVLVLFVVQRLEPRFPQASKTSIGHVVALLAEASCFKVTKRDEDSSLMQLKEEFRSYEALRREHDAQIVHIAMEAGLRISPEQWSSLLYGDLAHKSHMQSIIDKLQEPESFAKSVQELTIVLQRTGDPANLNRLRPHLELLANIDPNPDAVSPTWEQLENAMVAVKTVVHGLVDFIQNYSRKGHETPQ
Nature of the data set: ITC; attributed to duplex form of Tnf23; ITC: 20 mM Tris-HCl pH 8.0, 150 mM NaCl, 1 mM TCEP, 25 C; 200-500 uM RNA injected into 15-30 uM protein, one-site model. To be noted: protein: recombinant; tags: His6-tag, removed by TEV where applicable; mixture of hairpin and self-duplex in solution.

Data set [5] has as its target T2, RC3H2 stem-loop triple mutant. Put plainly: ITC; ITC: 20 mM Tris-HCl pH 8.0, 150 mM NaCl, 1 mM TCEP, 25 C; 200-500 uM RNA injected into 15-30 uM protein, one-site model. To be noted: protein: recombinant; tags: His6-tag, removed by TEV where applicable; hairpin; mainly stem-loop in solution.
For data set [6], the target named is T1, RC3H2 RNA-binding region (HEPN+ROQ), …. Put plainly: crystal structure; duplex contacts HEPN and ROQ; same ASU also has stem-loop RNA; 2.5 A; ITC: 20 mM Tris-HCl pH 8.0, 150 mM NaCl, 1 mM TCEP, 25 C; 200-500 uM RNA injected into 15-30 uM protein, one-site model. To be noted: protein: recombinant; tags: His6-tag (pET28-MHL N-terminal TEV-cleavable, or pNIC-CH C-terminal uncleavable); removed by TEV where applicable; antiparallel self-duplex, 2 copies of strand; 10 Watson-Crick bp plus central UGU with U7-U9 wobble pairs.

The mark [7] stands for this setting: tags: His6-tag (pET28-MHL N-terminal TEV-cleavable, or pNIC-CH C-terminal uncleavable), removed by TEV where applicable, hairpin and/or self-duplex.

B1: Roquin CDE RNA, 19-nt (structured_RNA)
RNA: AUAACUUCUGUGAAGUUGC
For B1, the binding result in data set [1] (setting [7]) is recorded as “binds”.

B2: Tnf23 CDE RNA, 23-nt (structured_RNA)
RNA: ACAUGUUUUCUGUGAAAACGGAG
For B2, in data set [2], the binding result is “binds”. Besides, the Kd in data set [3] (mixture of hairpin and self-duplex in solution) was 144 ± 50 nM; in data set [4] it was 590 nM.

B3: dsICOS (called 24-bp; 23 nt printed) (dsRNA)
RNA 1: UCUUCAGUCUAGACAGUUCGCUU
RNA 2: AAGCGAACUGUCUAGACUGAAGA
Regarding B3, in data set [1] (tags: His6-tag (pET28-MHL N-terminal TEV-cleavable, or pNIC-CH C-terminal uncleavable; removed by TEV where applicable; ends not further stated)), the binding result was “binds”.

B4: Ier3 CDE RNA, 15-nt (structured_RNA)
RNA: AUGUUCUGUGAACAC
As for B4, the binding result in data set [5] is “no binding”. In data set [3] (hairpin, mainly stem-loop in solution), the Kd stood at 356 ± 86 nM.

B5: Roquin2 CDE RNA (called 27-nt; 26 nt printed) (structured_RNA)
RNA: UUAAUAACUUCUGUGAAGUUGUUUAC
As to B5, the binding result in data set [1] (setting [7]) is reported as “binds”.

B6: Ier3 CDE RNA duplex (crystal) (dsRNA)
RNA 1: AUGUUCUGUGAACAC
RNA 2: AUGUUCUGUGAACAC
As to B6, in data set [6], the binding result is “binds”.

In general, Kd refers to the equilibrium constant for the complex coming apart.
